Reference: the supplement of paper PMC11908140

B1: library; numbered along this chain (parent)
chain: MRKPRAAVGSGHRKQAASQEGRQKHAKNNSQAKPSACDGLARQPEEVVLQASVSSYHLFRDVAEVTAFRGSLLSWYDQEKRDLPWRRRAEDEMDLDRRAYAVWVSEVMLQQTQVATVINYYTGWMQKWPTLQDLASASLEEVNQLWAGLGYYSRGRRLQEGARKVVEELGGHMPRTAETLQQLLPGVGRYTAGAIASIAFGQATGVVDGNVARVLCRVRAIGADPSSTLVSQQLWGLAQQLVDPARPGDFNQAAMELGATVCTPQRPLCSQCPVESLCRARQRVEQEQLLASGSLSGSPDVEECAPNTGQCHLCLPPSEPWDQTLGVVNFPRKASRKPPREESSATCVLEQPGALGAQILLVQRPNSGLLAGLWEFPSVTWEPSEQLQRKALLQELQRWAGPLPATHLRHLGEVVHTFSHIKLTYQVYGLALEGQTPVTTVPPGARWLTQEEFHTAAVSTAMKKVFRVYQGQQPGTCMGSKRSQVSSPCSRKKPRMGQQVLDNFFRSHISTDAHSLNSAAQ

Variants of: B1
Experiment: 8OG:A repair function score (normalized; synonymous = 0, nonsense = -1) (normalized log-likelihood score); higher = more repair activity (WT-like)
Conditions: with 8OG:A DNA repair reporter (GFP) in HEK-293 MUTYH KO cells
How it was run: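 Lentiviral MUTYH cDNA NNN codon-scan libraries in HEK-293 MUTYH knockout cells (10 pg/ml doxycycline) were co-transfected with an 8OG:A GFP repair reporter plus mCherry. At 72 h, viable mCherry+ cells were sorted into GFP+ (repair) and GFP− bins, three replicates per tile, then tile amplicons were sequenced. Per-tile Rosace fitness scores became a normalized repair function score anchored on synonymous and nonsense distributions. Synonymous medians were set to 0 and nonsense to -1; variants under 300 counts per million at the start were removed.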

8OG:A repair function score: each site, then its substitutions
P404: N 0.336; E 0.341; Y -0.119; D -0.155; R 0.163; I 0.118; M 0.184; C -0.224; F -0.272; H 0.138; K 0.298; A -0.142; L 0.0132; W -0.26; V -0.000894; Q 0.15; T -0.55; S -0.587; G -0.187
G401: Y -0.393; V -0.142; W -0.421
H416: K -0.715; F -0.448; V -0.101; N -0.342; M -0.755; G -0.0614; E -0.909; P -0.576; I -0.188; Q 0.399; C -0.483; L -0.319; R -0.158; D -0.403; W -0.209; A -0.0865; S -0.0543; T 0.0616; Y -0.438
E413: L -0.056; A -0.0523; N -0.0589; R -0.0915; S 0.169; V -0.059; D -0.00314; M -0.375; P -0.386; T 0.369; F 0.0141; K 0.103; H 0.00964; G -0.112; C -0.201; Y -0.109; I 0.00451; Q -0.0587; W -0.379
T406: Q -0.294; K 0.103; F -0.539; W -0.0828; L -0.249; C 0.13; G -0.00238; R 0.0241; P -0.287; D 0.483; M -0.199; A 0.32; V 0.013; E -0.17; S -0.184; H 0.516; N 0.0152; Y -0.265; I 0.313
G412: C -0.809; I -0.788; S -0.26; Y -0.721; N -0.34; K -0.396; P -0.295; F -0.473; V -0.894; W -0.986; E -0.631; A -0.236; L -0.855; T -0.494; Q -0.645; M -0.67; R -0.598; H -0.792; D -0.162
S419: E -0.583; D -0.221; F -0.753; C -0.434; L -0.749; G -0.522; I -0.542; K 0.0315; A -0.188; H -0.28
H407: E -0.226; L -0.0178; S -0.109; R -0.0136; C -0.123; W -0.172; A 0.245; T -0.107; Q 0.0383; G -0.0586; Y -0.269; V 0.0608; F -0.245; K -0.104; P -0.0456; N 0.205; M -0.456; I 0.0779; D 0.0493
P402: F -0.215; S -0.138; N -0.282; L -0.318; D 0.516; Y -0.122; I -0.0565; R -0.0808; T -0.26; E -0.208; W -0.534; M 0.138; V -0.0663; A -0.0823; C -0.0435; K -0.00401; Q -0.236; G -0.274
L403: I 0.0162; W -0.318; S -0.428; F 0.0495; C 0.158; D -0.686; A -0.335; N -0.0773; M -0.0231; E -0.596; G -0.509; K -0.295; T 0.0396; Y -0.513; R -0.392; V 0.058; Q 0.0753; P -0.0649
A405: Q -0.0438; I 0.0761; W -0.606; L -0.177; F 0.0223; D -0.0995; C 0.144; P 0.125; M -0.161; G -0.0383; Y -0.204; H -0.489; V -0.00982; R 0.00307; N -0.161; S 0.0326; K 0.0168; T -0.128; E 0.199
R409: G -0.342; E 0.0558; A -0.0367; V 0.0575; D -0.0632; P -0.541; Q -0.332; C -0.178; H -0.288; S 0.0978; F -0.167; Y -0.0918; M -0.242; T 0.31; N -0.0513; I -0.183; W 0.0733; L 0.0499; K -0.145
H410: K -0.0723; I -0.161; E -0.292; A -0.29; Y 0.174; N -0.157; M 0.0995; D -0.324; F 0.096; Q -0.291; S -0.169; W -0.367; V -0.2; G -0.298; P -0.371; L -0.3; T -0.322; C -0.293; R 0.0868
V414: F -0.187; K -0.609; W -0.504; L -0.0973; T -0.0984; M -0.321; C 0.129; H -0.326; I -0.137; S -0.294; D -0.769; Q -0.321; Y -0.314; N -0.679; E -0.742; G -0.649; R -0.625; A -0.157; P -1.01
L411: V 0.0699; H 0.0947; R -0.222; M -0.193; P -0.665; N -0.503; I 0.148; K -0.505; E -0.473; Y 0.251; G -0.531; T -0.469; Q -0.494; S -0.29; W -0.28; C 0.0617; A -0.00099; D -0.751; F -0.151
V415: W 0.0208; G -0.172; E -0.106; N -0.11; K -0.327; Y -0.275; T -0.106; F -0.391; S 0.0289; H -0.115; L 0.0523; M 0.0821; R 0.157; C 0.022; Q 0.189; P -0.0885; A 0.0175; I 0.053; D -0.364
L408: N -0.893; F -0.529; A -0.717; M -0.0275; D -0.946; S -0.483; K -0.858; Q -0.293; V -0.347; W -0.833; C 0.18; I 0.246; H -1.11; Y -0.205; T -0.417; P -0.461; E -1.61; G -0.81; R -0.839
F418: A -0.333; T -0.165; Q -0.554; K -0.75; W -0.969; P -0.719; D -1.06; I 0.255; C -0.171; S -0.474; Y -0.368; H -0.4; G -0.636; V -0.269; M 0.07; E -0.889; R -0.722; N -0.355; L -0.304
T417: P -0.506; R 0.199; L -0.0186; K 0.36; N 0.149; C -0.188; V 0.0389; S 0.0785; Q -0.0624; M 0.321; Y 0.325; W -0.253; H -0.254; I -0.142; A 0.198; F 0.0432; E 0.0158; G -0.208; D -0.0817
